Holding throughout (experiment): cell-based or functional assay
The target in experiment [1] is T1, IL-2Rβ/γc complex (intermediate affinity receptor) on primary human CD8+ T cells (human, UniProt P14784 27-551; P31785 23-369).
T1 sequence (looked up) 1: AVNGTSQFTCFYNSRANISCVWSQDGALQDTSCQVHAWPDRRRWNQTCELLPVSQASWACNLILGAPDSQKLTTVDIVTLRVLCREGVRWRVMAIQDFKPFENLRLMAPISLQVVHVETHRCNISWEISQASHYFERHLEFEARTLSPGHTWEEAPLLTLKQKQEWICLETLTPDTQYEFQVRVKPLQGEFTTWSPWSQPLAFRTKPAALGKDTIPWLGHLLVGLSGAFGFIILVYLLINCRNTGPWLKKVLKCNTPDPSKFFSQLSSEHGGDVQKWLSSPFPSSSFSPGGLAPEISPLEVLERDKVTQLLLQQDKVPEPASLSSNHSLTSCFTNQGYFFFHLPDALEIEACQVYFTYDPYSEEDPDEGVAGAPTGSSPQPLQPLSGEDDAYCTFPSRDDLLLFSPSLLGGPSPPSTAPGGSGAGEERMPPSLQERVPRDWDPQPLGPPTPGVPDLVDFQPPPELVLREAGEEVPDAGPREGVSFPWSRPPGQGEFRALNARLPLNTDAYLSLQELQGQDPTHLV
T1 sequence (looked up) 2: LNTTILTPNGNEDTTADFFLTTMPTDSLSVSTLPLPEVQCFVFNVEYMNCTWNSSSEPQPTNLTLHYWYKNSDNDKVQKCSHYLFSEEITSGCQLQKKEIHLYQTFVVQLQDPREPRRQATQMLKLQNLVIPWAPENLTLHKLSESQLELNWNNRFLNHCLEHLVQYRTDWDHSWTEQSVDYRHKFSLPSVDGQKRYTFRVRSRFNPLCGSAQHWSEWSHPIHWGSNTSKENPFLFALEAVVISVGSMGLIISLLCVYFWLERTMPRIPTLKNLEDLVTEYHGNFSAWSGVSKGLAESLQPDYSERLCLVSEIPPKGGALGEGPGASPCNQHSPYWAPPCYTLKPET

Experiment [2] concerns the target T2, IL-2Rα/β/γc complex (high affinity receptor) on human activated CD8+ T cells (human, UniProt P01589 22-272; P14784 27-551; P31785 23-369).
T2 sequence (looked up) 1: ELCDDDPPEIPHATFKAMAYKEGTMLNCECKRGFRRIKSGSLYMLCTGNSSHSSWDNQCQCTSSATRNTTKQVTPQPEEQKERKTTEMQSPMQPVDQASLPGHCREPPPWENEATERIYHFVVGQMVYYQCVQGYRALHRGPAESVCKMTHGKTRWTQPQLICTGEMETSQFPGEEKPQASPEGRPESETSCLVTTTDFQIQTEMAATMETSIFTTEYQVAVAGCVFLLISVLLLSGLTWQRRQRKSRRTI
T2 sequence (looked up) 2: T1 sequence (looked up) 1
T2 sequence (looked up) 3: T1 sequence (looked up) 2

In experiment [3] the target is PD-1 (on CHO-PD1 engineered cell line; on activated CD8+ T cells) (UniProt Q15116 25-288, limits assumed).
Experiment [4] concerns the target T1, IL-2Rβ/γc complex (intermediate …). This is another data set of the same source.
In experiment [5] the target is T2, IL-2Rα/β/γc complex (high affinity …). The source holds these as a separate data set.
For experiment [6], the target named is IL-2Rα/β/γc complex (high affinity receptor) on human activated CD8+ T cells (human) (UniProt P01589).

Substitutions are numbered along the chain they refer to. Read-outs that look alike come from different tables or passages of the source.

We go through 6 molecules from US20260232769A1 (WUXI BIOLOGICS IRELAND, published 2026).

B1: W3XX115-T2U3.E44-15.uIgG4V322 (Fc fusion)
chain: APTSSSTKKTQLQLEHLLLDLQMILNGINNYKNPKLTRMLTVKFYMPKKATELKHLQCLEEELKPLEEVLNLAQSKNFHLRPRDLISNINVIVLELKGSETTFMCEYADETATIVEFLNRWITFCQSIIESKYGPPCPPCPAPEAAGGPSVFLFPPKPKDTLMISRTPEVTCVVVDVSQEDPEVQFNWYVDGVEVHNAKTKPREEQFNSTYRVVSVLTVLHQDWLNGKEYKCKVSNKGLPSSIEKTISKAKGQPREPQVYTLPPCQEEMTKNQVSLWCLVKGFYPSDIAVEWESNGQPENNYKTTPPVLDSDGSFFLYSRLTVDKSRWQEGNVFSCSVMHEALHNHYTQKSLSLSLGK
heavy: QVQLVQSGAEVKKPGSSVKVSCKASGFTFTTYYISWVRQAPGQGLEYLGYINMGSGGTNYNEKFKGRVTITADKSTSTAYMELSSLRSEDTAVYYCAIIGYFDYWGQGTMVTVSSASTKGPSVFPLAPCSRSTSESTAALGCLVKDYFPEPVTVSWNSGALTSGVHTFPAVLQSSGLYSLSSVVTVPSSSLGTKTYTCNVDHKPSNTKVDKRVESKYGPPCPPCPAPEAAGGPSVFLFPPKPKDTLMISRTPEVTCVVVDVSQEDPEVQFNWYVDGVEVHNAKTKPREEQFNSTYRVVSVLTVLHQDWLNGKEYKCKVSNKGLPSSIEKTISKAKGQPREPQVCTLPPSQEEMTKNQVSLSCAVKGFYPSDIAVEWESNGQPENNYKTTPPVLDSDGSFFLVSRLTVDKSRWQEGNVFSCSVMHEALHNHYTQKSLSLSLGK
light: DVVMTQSPLSLPVTLGQPASISCRSSQSLLDSDGGTYLYWFQQRPGQSPRRLIYLVSTLGSGVPDRFSGSGSGTDFTLKISRVEAEDVGVYYCMQLTHWPYTFGQGTKLEIKRTVAAPSVFIFPPSDEQLKSGTASVVCLLNNFYPREAKVQWKVDNALQSGNSQESVTEQDSKDSTYSLSSTLTLSKADYEKHKVYACEVTHQGLSSPVTKSFNRGEC
For the molecule B1, in experiment [1], the “Potency reduction, pSTAT5, human primary CD8+ T” value was found to be 132 fold and the “pSTAT5 EC50, human primary CD8+ T” value was determined as 1.87 µM. In experiment [2], the “Potency reduction, pSTAT5, human activated CD8+ T (CD25 positive and PD-1 positive)” value stood at 139 fold; the “pSTAT5 EC50, human activated CD8+ T (CD25 positive and PD-1 positive)” value (“pSTAT5 EC50 … (CD25 positive and PD-1 positive)” for short) amounted to 3.78 nM. Besides, the “PD-1+/PD-1- ratio (pSTAT5 potency, activated versus primary CD8+ T)” value (“PD-1+/PD-1- ratio” below) in experiment [3] stood at 496 fold.

B2: W3XX115-T2U3.E44-20.uIgG4V322 (Fc fusion)
chain: B1 chain with R38W, V42F
heavy: B1 heavy
light: B1 light
Take B2: in experiment [1], the “Potency reduction, pSTAT5, human primary CD8+ T” value was 56.8 fold and the “pSTAT5 EC50, human primary CD8+ T” value came out at 809 nM. In experiment [2], the “Potency reduction, pSTAT5, human activated CD8+ T (CD25 positive and PD-1 positive)” value was determined as 44.3 fold; the “pSTAT5 EC50 … (CD25 positive and PD-1 positive)” value stood at 1.21 nM. Further, in experiment [3], the “PD-1+/PD-1- ratio” value was determined as 669 fold.

B3: W3XX115-T2U3.E44-33.uIgG4V322 (Fc fusion)
chain: B1 chain with R38W, V42F, I129L
heavy: B1 heavy
light: B1 light
B3: in experiment [1], the “Potency reduction, pSTAT5, human primary CD8+ T” value turned out to be 26.2 fold and the “pSTAT5 EC50, human primary CD8+ T” value was determined as 373 nM. For the same molecule, in experiment [2], the “Potency reduction, pSTAT5, human activated CD8+ T (CD25 positive and PD-1 positive)” value came out at 48.6 fold; the “pSTAT5 EC50 … (CD25 positive and PD-1 positive)” value is 1.32 nM. Also, the “PD-1+/PD-1- ratio” value in experiment [3] was 283 fold.

B4: W3XX115-T2U0.E44-48.uIgG4V322 (Fc fusion)
chain: APTSSSTKKTQLQLEHLLLDLQMILNGINNYKNPKLTRMLTFKFYMPKKATELKHLQCLEEELKPLEEVLNLAQSKNFHLRPRDLISNINVIVLELKGSETTFMCEYADETATIVEFLNRWYTFCQSILESKYGPPCPPCPAPEAAGGPSVFLFPPKPKDTLMISRTPEVTCVVVDVSQEDPEVQFNWYVDGVEVHNAKTKPREEQFNSTYRVVSVLTVLHQDWLNGKEYKCKVSNKGLPSSIEKTISKAKGQPREPQVYTLPPCQEEMTKNQVSLWCLVKGFYPSDIAVEWESNGQPENNYKTTPPVLDSDGSFFLYSRLTVDKSRWQEGNVFSCSVMHEALHNHYTQKSLSLSLG
heavy: EIQLQQSGPELVKPGASVKVSCKASGYSFTDYNMYWVKQSHGESLEWIGYIDPYNGGTRYNQKFKGKATLTVDKSSSTAFMHLNSLTSEDSAVYYCARNGHWDGAWFAYWGQGTLVTVSAASTKGPSVFPLAPCSRSTSESTAALGCLVKDYFPEPVTVSWNSGALTSGVHTFPAVLQSSGLYSLSSVVTVPSSSLGTKTYTCNVDHKPSNTKVDKRVESKYGPPCPPCPAPEAAGGPSVFLFPPKPKDTLMISRTPEVTCVVVDVSQEDPEVQFNWYVDGVEVHNAKTKPREEQFNSTYRVVSVLTVLHQDWLNGKEYKCKVSNKGLPSSIEKTISKAKGQPREPQVCTLPPSQEEMTKNQVSLSCAVKGFYPSDIAVEWESNGQPENNYKTTPPVLDSDGSFFLVSRLTVDKSRWQEGNVFSCSVMHEALHNHYTQKSLSLSLG
light: DIQMNQSPSSLSASLGDTITITCHASQNINVWLSWYQQKPGNIPKLLIYKASNLHTGVPSRFSGSRSGTGFTLTISSLQPEDIATYYCHQGQSYPFTFGSGTKLEIKRTVAAPSVFIFPPSDEQLKSGTASVVCLLNNFYPREAKVQWKVDNALQSGNSQESVTEQDSKDSTYSLSSTLTLSKADYEKHKVYACEVTHQGLSSPVTKSFNRGEC
On to B4, for which, in experiment [4], the “Potency reduction, pSTAT5, human primary CD8+ T” value worked out at 2.7 fold and the “pSTAT5 EC50, human primary CD8+ T” value worked out at 300 nM. In experiment [5], the “Potency reduction, pSTAT5, human activated CD8+ T” value stood at 14.7 fold and the “pSTAT5 EC50, human activated CD8+ T” value worked out at 0.25 nM.

B5: W3XX115-T2U0.E44-49.uIgG4V322 (Fc fusion)
chain: B4 chain with K32D, Y122I
heavy: B4 heavy
light: B4 light
B5: in experiment [4], the “Potency reduction, pSTAT5, human primary CD8+ T” value came to 3.8 fold and the “pSTAT5 EC50, human primary CD8+ T” value worked out at 425 nM. Also, in experiment [5], the “Potency reduction, pSTAT5, human activated CD8+ T” value is 22.2 fold and the “pSTAT5 EC50, human activated CD8+ T” value came out at 0.38 nM.

B6: W3XX115-BMK8 (Fc fusion, part only; not given: Fab heavy and light chains, part only)
chain: APTSSSTKKTQLQLEHLRLDLEMILNGINNYKNPKLTRMLTFKFYMPKKATELKHLQCLEEELKPLEEVLNLAQSKNFHLRPRDLISNINVIVLELKGSETTFMCEYADETATIVEFLNRWITFCKSIISTLTESKYGPPCPPCPAPEFLGGPSVFLFPPKPKDTLMISRTPEVTCVVVDVSQEDPEVQFNWYVDGVEVHNAKTKPREEQFNSTYRVVSVLTVLHQDWLNGKEYKCKVSNKGLPSSIEKTISKAKGQPREPQVYTLPPCQEEMTKNQVSLWCLVKGFYPSDIAVEWESNGQPENNYKTTPPVLDSDGSFFLYSRLTVDKSRWQEGNVFSCSVMHEALHNHYTQKSLSLSLG
In experiment [6], B6 gave a Potency reduction, pSTAT5, human activated CD8+ T of 7.2 fold and a pSTAT5 EC50, human activated CD8+ T of 0.12 nM.
